Test results as given in patent US20240247080A1, “GLP1/GIP/NPY2 RECEPTOR TRIPLE AGONISTS” (Boehringer Ingelheim International GmbH, priority 2022, published 2024).
Changes are numbered by the printed parent chain. One block for each binder: values may come before it. Starred links: 1 amine or outer side, 2 acyl side, 3 side chain; linkers in the order of their positions; H or OH if unused. Non-standard residues stand in square brackets, D forms with d. Groups on a side chain read outwards from the residue. No end group written: not given here. *: point of attachment. C18 diacid = O=C(O)CCCCCCCCCCCCCCCCC(=O)*; γGlu = O=C(O)[C@H](CCC(=O)[*:2])N[*:1]; εLys = N[C@@H](CCCCN[*:1])C(=O)[*:2]; AEEA = NCCOCCOCC(=O)O; Aib = CC(C)(N)C(=O)O

Columns and labels:
Assay in all cases: cell-based or functional assay
human GLP-1 receptor = human GLP-1 receptor (human, UniProt P43220 24-463)
human GIP receptor = target: T1, human GIP receptor (human, UniProt P48546 22-466)
T1 sequence (looked up): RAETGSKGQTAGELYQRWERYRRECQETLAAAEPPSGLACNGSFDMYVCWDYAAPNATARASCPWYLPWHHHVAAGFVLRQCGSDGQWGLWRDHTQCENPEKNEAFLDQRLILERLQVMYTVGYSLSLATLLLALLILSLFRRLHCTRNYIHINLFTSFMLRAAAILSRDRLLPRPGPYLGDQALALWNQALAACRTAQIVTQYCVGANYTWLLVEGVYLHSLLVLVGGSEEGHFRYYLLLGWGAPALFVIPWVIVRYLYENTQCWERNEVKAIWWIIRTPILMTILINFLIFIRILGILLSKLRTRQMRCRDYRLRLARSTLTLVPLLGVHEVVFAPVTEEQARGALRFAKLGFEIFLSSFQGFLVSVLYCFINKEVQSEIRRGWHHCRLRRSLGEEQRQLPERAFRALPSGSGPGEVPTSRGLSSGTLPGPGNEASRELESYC

[1] = target: T2, human neuropeptide Y2 receptor (human, UniProt P49146 1-381)
T2 sequence (looked up): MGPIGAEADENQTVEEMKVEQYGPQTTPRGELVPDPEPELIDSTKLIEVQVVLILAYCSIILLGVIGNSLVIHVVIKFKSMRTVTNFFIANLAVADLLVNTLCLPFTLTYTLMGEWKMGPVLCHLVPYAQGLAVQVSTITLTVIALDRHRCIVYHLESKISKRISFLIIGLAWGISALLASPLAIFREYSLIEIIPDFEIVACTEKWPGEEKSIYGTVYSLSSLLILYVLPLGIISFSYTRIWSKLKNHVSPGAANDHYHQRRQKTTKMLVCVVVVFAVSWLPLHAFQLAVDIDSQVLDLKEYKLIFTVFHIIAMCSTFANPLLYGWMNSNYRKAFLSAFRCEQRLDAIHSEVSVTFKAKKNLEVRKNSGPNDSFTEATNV

EC50 CreLuc hGLP1R 0.5% hP (human GLP-1 receptor): 0.26 nM
EC50 CreLuc hGLP1R 100% hP (human GLP-1 receptor): 4.39 nM
EC50 CreLuc hGIPR 0.5% hP (human GIP receptor): 0.91 nM
EC50 CreLuc hGIPR 100% hP (human GIP receptor): 1.28 nM
EC50 CreLuc hNPY2R 0.5% hP [1]: 18.9 nM
EC50 CreLuc hNPY2R 100% hP [1]: 42.3 nM
Binder: Y[Aib]EGTFTSDYSI[Aib]LEKQAQ[Aib]EFVQWLIK([γGlu-γGlu-γGlu-γGlu-γGlu-γGlu-C18 diacid])GGPSEGASLRHYYNWLTRQRY-NH2 [Compound 151]

EC50 CreLuc hGLP1R 0.5% hP (human GLP-1 receptor): 0.13 nM
EC50 CreLuc hGLP1R 100% hP (human GLP-1 receptor): 4.24 nM
EC50 CreLuc hGIPR 0.5% hP (human GIP receptor): 0.22 nM
EC50 CreLuc hGIPR 100% hP (human GIP receptor): 0.67 nM
EC50 CreLuc hNPY2R 0.5% hP [1]: 13.1 nM
EC50 CreLuc hNPY2R 100% hP [1]: 42.2 nM
Binder: Y[Aib]EGTFTSDYSI[Aib]LEKQAQ[Aib]AFVQWLIK([εLys-γGlu-γGlu-γGlu-γGlu-γGlu-C18 diacid])GGPEEGASLRHYYNWLTRQRY-NH2 [Compound 143]

EC50 CreLuc hGLP1R 0.5% hP (human GLP-1 receptor): 0.35 nM
EC50 CreLuc hGLP1R 100% hP (human GLP-1 receptor): 9.05 nM
EC50 CreLuc hGIPR 0.5% hP (human GIP receptor): 0.38 nM
EC50 CreLuc hGIPR 100% hP (human GIP receptor): 1.58 nM
EC50 CreLuc hNPY2R 0.5% hP [1]: 23.6 nM
EC50 CreLuc hNPY2R 100% hP [1]: 86.9 nM
Binder: Y[Aib]EGTFTSDYSI[Aib]LEKQAQ[Aib]EFVQWLIK([AEEA-AEEA-Glu-Glu-Glu-C18 diacid])GGPSEGASLRHYYNWLTRQRY-NH2 [Compound 157]

EC50 CreLuc hGLP1R 0.5% hP (human GLP-1 receptor): 0.08 nM
EC50 CreLuc hGLP1R 100% hP (human GLP-1 receptor): 1.46 nM
EC50 CreLuc hGIPR 0.5% hP (human GIP receptor): 0.07 nM
EC50 CreLuc hGIPR 100% hP (human GIP receptor): 0.47 nM
EC50 CreLuc hNPY2R 0.5% hP [1]: 11 nM
EC50 CreLuc hNPY2R 100% hP [1]: 21.1 nM
Binder: Y[Aib]EGTFTSDYSI[Aib]LEKQAQ[Aib]AFVQWLIK([εLys-γGlu-γGlu-γGlu-γGlu-γGlu-C18 diacid])GGPSEPASLRHYYNWLTRQRY-NH2 [Compound 148]

EC50 CreLuc hGLP1R 0.5% hP (human GLP-1 receptor): 0.14 nM
EC50 CreLuc hGLP1R 100% hP (human GLP-1 receptor): 4.27 nM
EC50 CreLuc hGIPR 0.5% hP (human GIP receptor): 0.77 nM
EC50 CreLuc hGIPR 100% hP (human GIP receptor): 0.73 nM
EC50 CreLuc hNPY2R 0.5% hP [1]: 14 nM
EC50 CreLuc hNPY2R 100% hP [1]: 38.8 nM
Binder: Y[Aib]EGTFTSDYSI[Aib]LEKQAQ[Aib]AFVQWLIK([AEEA-AEEA-γGlu-γGlu-γGlu-γGlu-C18 diacid])GGPEEGASLRHYYNWLTRQRY-NH2 [Compound 146]

EC50 CreLuc hGLP1R 0.5% hP (human GLP-1 receptor): 0.12 nM
EC50 CreLuc hGLP1R 100% hP (human GLP-1 receptor): 3.11 nM
EC50 CreLuc hGIPR 0.5% hP (human GIP receptor): 0.22 nM
EC50 CreLuc hGIPR 100% hP (human GIP receptor): 1.2 nM
EC50 CreLuc hNPY2R 0.5% hP [1]: 12.4 nM
EC50 CreLuc hNPY2R 100% hP [1]: 45.9 nM
B1: Compound 140 (peptide)
peptide: YXEGTFTSDYSIXLEKQAQXAFVEWLIKGGPSSPASLRHYYNWLTRQRY
modifications: Aib at 2, 13, 20; K28 side chain: C18DA-gGlu-gGlu-gGlu-gGlu-gGlu-OEG-OEG; C-terminal NH2

EC50 CreLuc hGLP1R 0.5% hP (human GLP-1 receptor): 0.25 nM
EC50 CreLuc hGLP1R 100% hP (human GLP-1 receptor): 6.12 nM
EC50 CreLuc hGIPR 0.5% hP (human GIP receptor): 0.22 nM
EC50 CreLuc hGIPR 100% hP (human GIP receptor): 1.21 nM
EC50 CreLuc hNPY2R 0.5% hP [1]: 18.9 nM
EC50 CreLuc hNPY2R 100% hP [1]: 58.5 nM
B2: Compound 153 (peptide)
peptide: B1 peptide with A21E, E24Q, S33E, P34G
modifications: Aib at 2, 13, 20; K28 side chain: C18DA-gGlu-gGlu-gGlu-gGlu-gGlu-gGlu-eLys; C-terminal NH2

EC50 CreLuc hGLP1R 0.5% hP (human GLP-1 receptor): 0.25 nM
EC50 CreLuc hGLP1R 100% hP (human GLP-1 receptor): 7.93 nM
EC50 CreLuc hGIPR 0.5% hP (human GIP receptor): 0.4 nM
EC50 CreLuc hGIPR 100% hP (human GIP receptor): 1.32 nM
EC50 CreLuc hNPY2R 0.5% hP [1]: 11.8 nM
EC50 CreLuc hNPY2R 100% hP [1]: 35.2 nM
B3: Compound 141 (peptide)
peptide: B1 peptide with A21E, E24Q, S33E, P34G
modifications: Aib at 2, 13, 20; K28 side chain: C18DA-gGlu-gGlu-gGlu-gGlu-gGlu; C-terminal NH2

EC50 CreLuc hGLP1R 0.5% hP (human GLP-1 receptor): 0.15 nM
EC50 CreLuc hGLP1R 100% hP (human GLP-1 receptor): 4.76 nM
EC50 CreLuc hGIPR 0.5% hP (human GIP receptor): 0.58 nM
EC50 CreLuc hGIPR 100% hP (human GIP receptor): 0.79 nM
EC50 CreLuc hNPY2R 0.5% hP [1]: 18.6 nM
EC50 CreLuc hNPY2R 100% hP [1]: 40.3 nM
B4: Compound 149 (peptide)
peptide: B1 peptide with E24Q, S32E, S33E, P34G
modifications: Aib at 2, 13, 20; K28 side chain: C18DA-gGlu-gGlu-gGlu-gGlu-gGlu-gGlu-eLys; C-terminal NH2

EC50 CreLuc hGLP1R 0.5% hP (human GLP-1 receptor): 0.12 nM
EC50 CreLuc hGLP1R 100% hP (human GLP-1 receptor): 3.34 nM
EC50 CreLuc hGIPR 0.5% hP (human GIP receptor): 0.28 nM
EC50 CreLuc hGIPR 100% hP (human GIP receptor): 1.15 nM
EC50 CreLuc hNPY2R 0.5% hP [1]: 12.9 nM
EC50 CreLuc hNPY2R 100% hP [1]: 28.2 nM
B5: Compound 142 (peptide)
peptide: B1 peptide with E24Q, S33E
modifications: Aib at 2, 13, 20; K28 side chain: C18DA-gGlu-gGlu-gGlu-gGlu-gGlu-OEG-OEG; C-terminal NH2
